From patent US20160208003A1 (AFFITECH RESEARCH, published 2016)
Several values for one entry are separate records, joined by “and”; a condition that tells them apart may be missing. Identical values can stand only once.

Columns and labels:
[1] = biological target: T1, human CC chemokine receptor 4 (CCR4) (human, UniProt P51679 1-360); assay: flow cytometry competition on CCRF-CEM cells; IgG titrated, competitor biotinylated MDC (ca. 10 or 20 nM); second of three IC50 values on CCRF-CEM cells; inhibition of biotinylated MDC
T1 construct: whole, on cells; Always presented on cells; also called CD194; human CCR4
T1 sequence (looked up): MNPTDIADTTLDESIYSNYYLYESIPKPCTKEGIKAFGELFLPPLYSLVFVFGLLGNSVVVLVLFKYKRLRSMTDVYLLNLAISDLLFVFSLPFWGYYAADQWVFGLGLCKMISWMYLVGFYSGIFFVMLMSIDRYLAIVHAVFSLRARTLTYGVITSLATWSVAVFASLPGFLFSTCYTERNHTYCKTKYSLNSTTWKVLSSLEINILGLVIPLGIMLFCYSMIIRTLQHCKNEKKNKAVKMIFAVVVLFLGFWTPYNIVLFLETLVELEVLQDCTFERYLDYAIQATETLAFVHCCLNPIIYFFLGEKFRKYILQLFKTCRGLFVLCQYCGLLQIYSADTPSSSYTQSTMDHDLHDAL
Experimental: (§1) The competition binding assays were performed with biotinylated MDC or biotinylated TARC on DT-40-CCR4+ and CCRF-CEM cells. DT40 and CCRF-CEM cells were cultured as described in Example 2. TARC and MDC were biotinylated using standard procedures. The biotinylation process causes some losses, so the concentrations of biotinylated MDC and TARC recited herein are approximate.
(§2) The cells were harvested from culture flasks, washed 2 times with PBS (400×g, 5 min, 4° C.) and resuspended in PBS containing 0.2% BSA and 0.09% NaN3. 1×10^5 cells per well were aliquoted into V-shaped 96-well plates (Greiner Bio-One, Frikenhausen, Germany). Cells were centrifuged (400×g, 5 min, 4° C.) and resuspended in 50 μl IgG, single chain or unlabeled ligand (1:10 dilution series starting on 100/500/26, 4 μg/ml) mixed with a fixed concentration of biotinylated ligand (10 or 20 nM, see legend to FIG. 24). The cells were incubated for 2 hours at 4° C. and mixed with a pipette every 45 min. The cells were washed three times with 150 μl PBS with 0.2% BSA and 0.09% NaN3 and stained with 3 μg/ml streptavidin PE (BD Biosciences) for 45 minutes at 4° C. […] Apparent binding affinities (KD) were calculated according to the following equation derived from previously described methods (Kipriyanov et al, 1997b; Schodin & Kranz, 1993): […]

[2] = biological target: T1, human CC chemokine receptor 4 (CCR4); assay: cell-based or functional assay
[3] = biological target: T1, human CC chemokine receptor 4 (CCR4); assay: flow cytometry competition on DT-40-CCR4+ cells; IgG titrated, competitor biotinylated TARC (ca. 20 nM)
Experimental: as §1, §2

[4] = biological target: T1, human CC chemokine receptor 4 (CCR4); assay: calculated from the IC50 (KD=IC50/(1+[bio-MDC]/KD MDC)); DT-40-CCR4+ cells, competitor biotinylated MDC
[5] = biological target: T1, human CC chemokine receptor 4 (CCR4); assay: flow cytometry competition on DT-40-CCR4+ cells; IgG titrated, competitor biotinylated MDC (ca. 10 nM)
Experimental: as §1, §2

[6] = biological target: T1, human CC chemokine receptor 4 (CCR4); assay: flow cytometry, IgG titration on CCR4+ DT40 cells (2); one site-specific binding fit (Prism)
Experimental: (§3) The IgG forms of antibodies 17G, 9E and KM3060var using various CCR4⁺ cell types were used (see Example 2).
(§4) For the flow cytometry experiments, the cells were harvested from the culture flasks, washed 2 times with PBS, re-suspended in PBS with 0.2% BSA and 0.09% NaN₃ and finally aliquoted 1×10⁵ cells per well into V-shaped 96-well plates (Greiner Bio-One, Frickenhausen, Germany). Cells were centrifuged at 400×g for 5 min and then incubated at 4° C. for 45 min with different antibody dilutions.
(§5) After washing with PBS with 0.2% BSA and 0.09% NaN₃, the cells were stained with 10 μg/ml of RPE-conjugated goat anti-human IgG (AbDSerotec, Düsseldorf, Germany) for 30 minutes at 4° C. The stained cells were washed, re-suspended in 200 μl PBS with 0.2% BSA and 0.09% NaN₃ and transferred to a U-shaped 96-well plate (Corning, Schiphol-Rijk, The Netherlands) for acquisition on EasyCyte flow cytometer (Guava Technologies, Hayward, Calif., USA).

[7] = biological target: T1, human CC chemokine receptor 4 (CCR4); assay: competition flow cytometry on CCR4-transfected DT40 cells: unlabelled IgG against 7 nM biotinylated 9E IgG, streptavidin-RPE
Experimental: To analyze the epitope binding of anti-CCR4 antibodies 17G, 9E and KM3060var, competition experiments were performed using flow cytometry. The binding of biotinylated antibodies to CCR4 transfected DT40-cells was challenged in the presence of different concentrations of non-biotinylated anti-CCR4 antibodies. The CCR4⁺ DT40 cells were harvested from culture flasks, washed 2 times with PBS, re-suspended in PBS with 0.2% BSA and 0.09% NaN₃ and finally aliquoted 1×10⁵ cells per well into V-shaped 96-well plates (Greiner Bio-One, Frickenhausen, Germany). Cells were centrifuged at 400×g for 5 min and then incubated at 4° C. for 3-4 hours with fixed amounts of biotinylated IgG and different concentrations of non-biotinylated antibodies. After washing with PBS with 0.2% BSA and 0.09% NaN₃, the cells were stained with 2.5 μg/ml of Streptavidin—RPE (BD Pharmingen, San Diego, Calif., USA) for 30 minutes at 4° C. The stained cells were washed, re-suspended in 250 μl PBS with 0.2% BSA and 0.09% NaN₃ and transferred to a U-shaped 96-well plate (Corning, Schiphol-Rijk, The Netherlands) for acquisition on EasyCyte flow cytometer (Guava Technologies, Hayward, Calif., USA). The results shown in FIGS. 10 A, B and C illustrate that the 17G and 9E antibodies have epitopes that are identical or at least overlapping.

[8] = biological target: T1, human CC chemokine receptor 4 (CCR4); assay: flow cytometry, IgG titration on CCR4+ HEK293T cells; one site-specific binding fit (Prism)
Experimental: as §3, §4, §5

B1: 9E10J IgG (full length human IgG1, lambda) (antibody, V domains shown)
VH: QVQLVQSGAEVKKPGSSVKVSCKASGGTFSSYAISWVRQAPGQGLEWMGGIIPIFGTANYAQKFQGRVTMTRDTSTSTVYMELSSLRSEDTAVYYCARRGGSYFDYWGQGTLVTVSS
VL: SYVLTQPPSASGTPGQSVTISCSGSTSNIGSHYVFWYQQLPGTAPRLLIYRNHQRPSGVPDRLSGSKSGTSASLAISGLRSEDEADYYCAVWDDTLSGWVFGGGTKLTVLG
notes: also called IgG 9E10J; unmodified 9E10J
In the case of B1, the IC50 [1] is reported as 6.28 nM, the “ADCC of CCRF-CEM cells, EC50 (mean, N=2)” value [2] is reported as 8.7 ng/mL and the IC50 [3] is reported as 0.26 nM and 0.4 nM. It also gave a Kd [4] of 0.01 nM and an IC50 [5] of 0.76 nM.

B2: 9E IgG (full length human IgG1, lambda) (antibody, V domains shown)
VH: QVQLVQSGAEVKKPGSSVKVSCKASGGTFSNYAISWVRQAPGQGLEWMGGIIPIFGTANYAQKFQGRVTITADESTSTAYMELSSLRSEDTAVYYCARRGGSYFDYWGQGTLVTVSS
VL: SYVLTQPPSASGTPGQSVTISCSGSTSNIGSHYVFWYQQLPGTAPRLLIYRNHQRPSGVPDRLSGSKSGTSASLAISGLRSEDEADYYCAVWDDTLSGWVFGGGTKLTVLG
notes: also called IgG 9E; IgG1 9E
With B2 the Kd [6] was 0.17 nM, the “IC50 (read off the curve)” value [7] was about 3 nM and the Kd [8] was 0.36 nM.
